Experimental data as given in patent US12686846B2, “Plant sweet and yeast MSF transporter capable of transporting different sugars simultaneously” (THE BOARD OF TRUSTEES OF THE UNIVERSITY OF ILLINOIS, priority 2020, dated 2026).
Where a chain is given by its changes, count along the chain named. Names and notes keep the numbering of the source. Values joined by “and” are separate entries in the source; they are usually repeats but may differ in a detail not shown here. Identical values can stand only once. “Also recorded” adds a separate entry of the source.

Columns and labels:
[1] = tested on: SR8D8 expressing transporter; assay: Transporter screening for growth on glucose or xylose (Bioscreen C); type: cell-based, S. cerevisiae; conditions: glucose or xylose containing medium, OD600
Description: ScGal2 expressing SR8D8 were used as a positive control (FIG. 3). Most of the AtSWEETs and putative oleaginous transporters expressing strains were not able to grow on glucose or xylose.
(§1) A xylose fermenting S. cerevisiae yeast (SR8) with HXT1-7Δ, GAL2Δ deletions was used for transporter screening and characterization (SR8D8). SR8D8 was grown in YPE medium/plate (10 g/L yeast extract, 20 g/L peptone, and 5 g/L ethanol). […] SRD8 strains transformed with plasmid containing KanMX marker conferring resistance to G418 (geneticin) were propagated on YPE supplemented with 200 μg/ml of geneticin. For growth and flask fermentation experiments all media was supplemented with 200 μg/ml of geneticin for plasmid maintenance. Biomass was calculated from the OD600 measured using a Biomate 5 UV-visible spectrophotometer (Fisher, NY, USA). All growth rates were measured using a Bioscreen C plate reader system (Growth Curves USA, Piscataway, NJ, USA). A 2 μL inoculum of fully grown culture was added into 200 μL YP (+200 μg/ml Geneticin) with varying concentrations of different sugars. A wide band filter (420-580 nm) was used to measure optical density. Bioscreen C values represent mean value from three biological replicates. In all cases, the Bioscreen C was set to maintain a temperature of 30° C. and high aeration through high continuous shaking.

[2] = tested on: SR8D8 expressing transporter; assay: Sole glucose or xylose flask fermentation; type: cell-based, S. cerevisiae
Description: (§2) For flask fermentation, a single colony was inoculated to 5 or 25 mL YPE ([…], 1% w/v yeast extract, 2% peptone, 5% ethanol) supplemented with 200 μg/ml of geneticin to obtain seed cultures. […] Flask fermentations were maintained at 30° C. and 250 rpm.
as §1

[3] = tested on: SR8D8 expressing transporter; assay: Glucose and xylose mixed sugar flask fermentation (20 g/L each); type: cell-based, S. cerevisiae; conditions: 20 g/L of glucose and xylose, YP medium
Description: as §2, §1

[4] = substrate: OC[C@H]1OC(O)[C@H](O)[C@@H](O)[C@@H]1O; assay: cells, lysate or membranes; conditions: other: initial glucose uptake (5 s), 30° C., pH 6.5, 0.2 to 100 mM glucose, ± SEM in Table 1
[5] = tested on: SR8D8 expressing transporter; assay: Mixed sugar fermentation at industrially relevant sugar concentrations; type: cell-based, S. cerevisiae; conditions: 7% glucose and 4% xylose (70 g/L, 40 g/L)
Description: as §2

[6] = tested on: transporter-overexpressing SR8D8; assay: Inhibition of xylose uptake by glucose; type: cell-based, S. cerevisiae; conditions: 25 mM or 100 mM glucose
Description: SR8D8 containing the respective plasmid was grown on selective YPE medium to an OD600 of 1-1.5, harvested by centrifugation, and washed twice in ice-cold uptake buffer (100 mM potassium phosphate, pH 6.5). C14 labeled sugar uptake assay was done according to Boles and Oreb. Radioactivity was analyzed in a Beckman-Coulter LS6500 multi-purpose liquid scintillation counter (Beckman-Coulter, CA, USA).
Sugar solutions contained 0.135-0.608 μCi of D-[U-^14C]-glucose (290-300 mCi/mmol) or D-[1-^14C]-xylose (55 mCi/mmol) (PerkinElmer, MA, USA). Calculation of Km (Michaelis constant), Vmax (maximal initial uptake velocity), and K (inhibitor constant for competitive inhibition) was done by nonlinear regression analysis and global curve fitting in Prism 7 (GraphPad Software) with values of three independent measurements.

B1: AtSWEET1: Arabidopsis thaliana SWEET1 transporter polypeptide, SEQ ID NO:1 (protein)
chain: MNIAHTIFGVFGNATALFLFLAPSITFKRIIKNKSTEQFSGIPYPMTLLNCLLSAWYGLPFVSKDNTLVSTINGTGAVIETVYVLIFLFYAPKKEKIKIFGIFSCVLAVFATVALVSLFALQGNGRKLFCGLAATVFSIIMYASPLSIMRLVVKTKSVEFMPFFLSLFVFLCGTSWFVYGLIGRDPFVAIPNGFGCALGTLQLILYFIYCGNKGEKSADAQKDEKSVEMKDDEKKQNVVNGKQDLQV
modifications: Arabidopsis thaliana SWEET1 (AtSWEET1) transporter polypeptide
growth / transport capacity on glucose or xylose [1]: can sustain growth of SR8D8 in glucose and xylose containing medium; also recorded: glucose transporter with almost no xylose transport capacity | sole sugar fermentation performance ([2]; glucose or xylose conditions, YP medium): robust glucose fermentation but inefficient xylose fermentation | xylose consumption ([2]; xylose fermentation, within 50 h): 5 g/L | glucose and xylose mixed sugar fermentation phenotype [3]: complete preference for glucose with negligible xylose consumption; also recorded: solo glucose fermentation

B2: F168A: AtSWEET1 single mutation F168A (protein, UniProt Q8L9J7 1-247, looked up, variant F168A)
Bidirectional sugar …: B1 chain with F168A
glucose and xylose mixed sugar fermentation phenotype [3]: capable of improving both glucose and xylose uptake rate

B3: AtSWEET4: Arabidopsis thaliana SWEET4 transporter polypeptide (protein, UniProt Q944M5 1-251, looked up)
Bidirectional sugar …: MVNATVARNIAGICGNVISLFLFLSPIPTFITIYKKKKVEEYKADPYLATVLNCALWVFYGLPMVQPDSLLVITINGTGLAIELVYLAIFFFFSPTSRKVKVGLWLIGEMVFVGIVATCTLLLFHTHNQRSSFVGIFCVIFVSLMYIAPLTIMSKVIKTKSVKYMPFSLSLANFLNGVVWVIYALIKFDLFILIGNGLGTVSGAVQLILYACYYKTTPKDDEDEEDEENLSKVNSQLQLSGNSGQAKRVSA
growth / transport capacity on glucose or xylose [1]: substantial growth on xylose and glucose; also recorded: both glucose and xylose transport capacity | growth / transport capacity on glucose or xylose ([1]; listed as SWEET4): capable of sustaining an efficient growth on glucose or xylose | glucose and xylose mixed sugar fermentation phenotype [3]: co-consumption of glucose and xylose with a faster glucose consumption rate than that of xylose; also recorded: co-fermentation with glucose preference | glucose and xylose mixed sugar fermentation phenotype ([3]; listed as SWEET4): simultaneously utilize glucose and xylose

B4: A175F: AtSWEET7 single mutation A175F (protein, UniProt Q8LBF7 1-258, looked up, variant A175F)
Bidirectional sugar …: MVFAHLNLLRKIVGIIGNFIALCLFLSPTPTFVRIVKKKSVEEYSPIPYLATLINCLVWVLYGLPTVHPDSTLVITINGTGILIEIVFLTIFFVYCGRQKQRLIISAVIAAETAFIAILAVLVLTLQHTTEKRTMSVGIVCCVFNVMMYASPLSVMKMVIKTKSVEFMPFWLSVFGFLNAGVWTIYALMPFDPFMAIPNGIGCLFGLAQLILYGAYYKSTKRIMAERENQPGYVGLSSAIARTGSEKTANTNQEPNNV
glucose and xylose mixed sugar fermentation phenotype [3]: capable of improving glucose and xylose uptake rate

B5: AtSWEET5: Arabidopsis thaliana SWEET5 transporter polypeptide (protein, UniProt Q9FM10 1-240, looked up)
Bidirectional sugar …: MTDPHTARTIVGIVGNVISFGLFCAPIPTMVKIWKMKSVSEFKPDPYVATVLNCMMWTFYGLPFVQPDSLLVITINGTGLFMELVYVTIFFVFATSPVRRKITIAMVIEVIFMAVVIFCTMYFLHTTKQRSMLIGILCIVFNVIMYAAPLTVMKLVIKTKSVKYMPFFLSLANFMNGVVWVIYACLKFDPYILIPNGLGSLSGIIQLIIYITYYKTTNWNDDDEDKEKRYSNAGIELGQA
growth / transport capacity on glucose or xylose [1]: capable of sustaining an efficient growth on glucose or xylose | glucose and xylose mixed sugar fermentation phenotype [3]: simultaneously utilize glucose and xylose

B6: Lipomyces starkeyi LST1_205437 transporter, wild type, SEQ ID NO: 4 (Lipomyces starkeyi NRRL Y-11557) (protein)
chain: MGFLGFLNRSQASEPVEKESTATTPSEGRTPQRPLSPAVGVPLEQDFETQLSAKDAPLLAFILGGVASVGGFMFGYQTGQISGFLEMSDFKTRFAACNSQTGQCTFSAARQGTIVGLFSIGTLIGSLIAAPIADRIGRRLTISFWAFFFMIGTVLEISSSHVWVQFAMGRFVGGLGIGALSVVVPMYQSESTPRMIRGVIVSSYQLMVTLGIWLAYMINWGTESLQGSQSWRITNGMSFLWALVLGIAILGLPESPRYAYRVGREEEARKNMARLYKLSPNHPIINLEIQEIQEKLDAERVGGDHPWYEIFTGPRMLYRTILGMVLQAGQQLTGANYFFYYGTTVFSATGLSNSYVTQIILGSVNVGGTIAGLWLIENCGRRKALMGGAAWMFMCFMVFAFVGHFSLDHQNPEATPQAGAALVVFSCLFIIAFAMTWGPIVWAIVGELYPARYRATCMGLATSSNWLFNFLIGFFTTFITGDIDYLYGLVFAGCCFALFFIVYFFVIETKGRSLEEIDTMYVLHVNPINSAKWDSSQLMRDGDGLVNTDDLYLEAGGNRFAKDEHSAHEMIPSHDENAPGPSHTSHADIEKAESSGAESRDAL
Km [4]: 4975 µM | Vmax [4]: 46.89 nmol/min/mg

B7: Saccharomyces cerevisiae ScGal2 (Gal2) transporter, SEQ ID NO:32 (Saccharomyces cerevisiae S288C) (protein)
chain: MAVEENNMPVVSQQPQAGEDVISSLSKDSHLSAQSQKYSNDELKAGESGSEGSQSVPIEIPKKPMSEYVTVSLLCLCVAFGGFMFGWDTGTISGFVVQTDFLRRFGMKHKDGTHYLSNVRTGLIVAIFNIGCAFGGIILSKGGDMYGRKKGLSIVVSVYIVGIIIQIASINKWYQYFIGRIISGLGVGGIAVLCPMLISEIAPKHLRGTLVSCYQLMITAGIFLGYCTNYGTKSYSNSVQWRVPLGLCFAWSLFMIGALTLVPESPRYLCEVNKVEDAKRSIAKSNKVSPEDPAVQAELDLIMAGIEAEKLAGNASWGELFSTKTKVFQRLLMGVFVQMFQQLTGNNYFFYYGTVIFKSVGLDDSFETSIVIGVVNFASTFFSLWTVENLGHRKCLLLGAATMMACMVIYASVGVTRLYPHGKSQPSSKGAGNCMIVFTCFYIFCYATTWAPVAWVITAESFPLRVKSKCMALASASNWVWGFLIAFFTPFITSAINFYYGYVFMGCLVAMFFYVFFFVPETKGLSLEEIQELWEEGVLPWKSEGWIPSSRRGNNYDLEDLQHDDKPWYKAMLE
Km [4]: 1613 µM and 1600 ± 200 µM

B8: ScGal2: S. cerevisiae Gal2 hexose transporter, control; SEQ ID NO:32 (protein)
chain: B7 chain
modifications: protein sequence alignmnet of ScGal2
mixed sugar utilization profile at high sugar [5]: sequential utilization of glucose and xylose | inhibition of xylose transport by glucose (in words) [6]: complete xylose inhibition even at the presence of 25 mM glucose | glucose and xylose mixed sugar fermentation phenotype [3]: sequential fermentation | glucose and xylose mixed sugar fermentation phenotype ([3]; listed as GAL2): transport both glucose and xylose in a sequential manner; also recorded: sequential manner of sugar utilization
